Data reported in patent EP2014310A2 (Dyax Corporation, dated 2009).

These binders were tested against T1, human KDR-Fc fusion (R&D Systems #357-KD-050) (human, UniProt P35968 20-764) (assay: phage binding screen on KDR-Fc; class legend in paragraph 246).
T1 construct: bought
T1 sequence (P35968 20-764): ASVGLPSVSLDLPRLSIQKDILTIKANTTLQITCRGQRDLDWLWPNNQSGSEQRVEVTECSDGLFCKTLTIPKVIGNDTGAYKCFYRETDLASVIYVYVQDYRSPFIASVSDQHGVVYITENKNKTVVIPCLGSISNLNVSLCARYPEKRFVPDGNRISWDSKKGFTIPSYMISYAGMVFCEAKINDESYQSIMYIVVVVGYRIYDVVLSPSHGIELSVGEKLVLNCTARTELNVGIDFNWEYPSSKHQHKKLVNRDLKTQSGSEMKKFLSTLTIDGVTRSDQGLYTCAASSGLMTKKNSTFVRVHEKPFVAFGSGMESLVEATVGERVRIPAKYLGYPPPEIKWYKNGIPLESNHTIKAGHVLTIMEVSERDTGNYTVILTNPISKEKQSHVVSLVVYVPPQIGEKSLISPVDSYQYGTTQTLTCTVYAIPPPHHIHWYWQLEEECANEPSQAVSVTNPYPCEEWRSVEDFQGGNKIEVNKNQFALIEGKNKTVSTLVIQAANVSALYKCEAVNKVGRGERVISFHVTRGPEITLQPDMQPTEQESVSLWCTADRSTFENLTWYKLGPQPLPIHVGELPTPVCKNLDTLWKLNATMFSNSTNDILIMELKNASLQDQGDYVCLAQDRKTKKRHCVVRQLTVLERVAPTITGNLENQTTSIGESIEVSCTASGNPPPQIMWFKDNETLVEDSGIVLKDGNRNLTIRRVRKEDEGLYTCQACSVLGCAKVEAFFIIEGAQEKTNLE

Row | Binder | binding result
1 | WIQCDRKAGRCSRG [phage isolate WIQCDRKAGRCSRG] | binds
2 | GVECYKHSGMCRSW [phage isolate GVECYKHSGMCRSW] | binds
3 | LNICKEDWYYCFLL [phage isolate LNICKEDWYYCFLL] | binds
4 | WIECHYKTGHCIHS [phage isolate WIECHYKTGHCIHS] | binds
5 | WLECYAEFGHCYNF [phage isolate WLECYAEFGHCYNF] | binds
6 | WLECYTEFGHCYNF [phage isolate WLECYTEFGHCYNF] | binds
7 | RNWCEEDWYYCFIT [phage isolate RNWCEEDWYYCFIT] | binds
8 | VNWCEEDWYYCWIT [phage isolate VNWCEEDWYYCWIT] | binds
9 | SNWCEEDWYYCYIT [phage isolate SNWCEEDWYYCYIT] | binds
10 | PDWCAADWYYCYIT [phage isolate PDWCAADWYYCYIT] | binds
11 | GVWCDMVTGWCYHG [phage isolate GVWCDMVTGWCYHG] | binds
12 | GINCYPATGKCQMG [phage isolate GINCYPATGKCQMG] | binds
13 | WIECYHPDGICYHF [phage isolate WIECYHPDGICYHF] | binds
14 | WTECHYATGKCHSF [phage isolate WTECHYATGKCHSF] | binds
15 | GITCYSATGKCQMW [phage isolate GITCYSATGKCQMW] | binds
16 | DFNCKMIDGFCLLK [phage isolate DFNCKMIDGFCLLK] | binds
17 | WVECWWKSGQCYEF [phage isolate WVECWWKSGQCYEF] | binds
18 | WVECWWKYGQCYEF [phage isolate WVECWWKYGQCYEF] | binds
19 | WVECFMDTGACYTF [phage isolate WVECFMDTGACYTF] | binds
20 | SVECFMDTGACYTF [phage isolate SVECFMDTGACYTF] | binds
21 | TITCWMDTGHCMHE [phage isolate TITCWMDTGHCMHE] | binds
22 | PEWCEVDWYYCWLL [phage isolate PEWCEVDWYYCWLL] | binds
23 | PTWCEDDWYYCWLF [phage isolate PTWCEDDWYYCWLF] | binds
24 | VWECAKTFPFCHWF [phage isolate VWECAKTFPFCHWF] | binds
25 | WIQCNSITGHCTSG [phage isolate WIQCNSITGHCTSG] | binds
26 | WIQCDMETGLCTHG [phage isolate WIQCDMETGLCTHG] | binds
27 | SKWCEQDWYYCWLL [phage isolate SKWCEQDWYYCWLL] | binds
28 | PDWCEEDWYYCWIT [phage isolate PDWCEEDWYYCWIT] | binds
